Experiment [1] deals with T1, microbial transglutaminase (mTG) (Streptomyces mobaraensis, UniProt P81453).
T1 construct: purchased Covalab, France opr 0054
T1 sequence (P81453 77-407): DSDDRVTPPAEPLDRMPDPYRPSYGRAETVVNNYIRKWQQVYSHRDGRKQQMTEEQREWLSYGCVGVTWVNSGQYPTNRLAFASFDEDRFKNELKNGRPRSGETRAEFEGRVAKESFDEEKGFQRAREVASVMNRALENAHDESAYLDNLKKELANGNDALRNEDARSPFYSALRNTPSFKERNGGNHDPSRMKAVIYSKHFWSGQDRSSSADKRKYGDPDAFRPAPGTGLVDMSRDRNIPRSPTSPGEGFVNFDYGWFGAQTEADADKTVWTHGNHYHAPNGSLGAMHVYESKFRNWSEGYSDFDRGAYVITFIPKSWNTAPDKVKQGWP
Put plainly: mTG-mediated incorporation of biotin-X-cadaverine into peptides coupled on Covabtest plate. The format is biochemical. The settings on record: 15 nmoles peptide coupled to plate, biot-cad 0.1 mg/ml, mTG 10 ng/well. As to the method: (§1) The coupling method was previously described by the Applicant (V. Thomas et al, 2004) and also in the corresponding data sheet of CovAbtest-Plate™ which is commercially available from Covalab (Ref #opr0004). Briefly, in separate tubes a solution mixture containing 150 μM of each peptide dissolved in 10 mM phosphate buffer pH5, 5 mM EDAC and 5 mM NHS was incubated for 30 min under gentle shaking. The resulting activated NHS-carboxyl C-terminal moiety of each peptide (15 nmoles) was used to be conjugated in each well of CovAbtest-Plate™ previously deprotonated during 15 min with 150 μl 0.6% sodium bicarbonate per well. The microtiter plate was then incubated during 2 hrs at room temperature and washed extensively with Tris Buffer Saline.
For this experiment we used the same procedures described by V Thomas et all (2004) and also in the Covalab's commercialized kit (opr0033). Briefly the Lyophilized transglutaminase was reconstituted in 40 mM tris buffer pH 8 and 50 μl of each mTG at 200 ng/ml and at 40 ng/ml were added in the wells containing 50 μl of biotin-X-cadaverine. The enzymatic mixture was incubated for 15 min at room temperature under gentle shaking. Then the plates were washed 3 times with TBS-Tween20 followed by the addition of 100 μl of diluted HRP labeled streptavidine ( 1/2000 in TBS Tween20, 0.5% BSA) in each well. After 30 min at room temperature and 3 washings in TBS-Tween20, 100 μL of TMB substrate were added and after 5 min the colour development was stopped using 100 μl of 0.5 M sulfuric acid. Absorbances at 450 nm were measured using a microplate reader (Multiskan, Labsystems, Helsinki, Finland).
To screen the peptide library (Covalab) and identify the putative new substrates of mTG we used Covabtest-peptide (described in B-I-1) in which the peptides were covalently coupled into the plates and the amine substrate Biotin-cadeverine (biot-cad) was free in solution. In this experiment 15 nmoles of each peptide (table 2) were covalently conjugated to microtiter plate and the incorporation of biot-cad (0.1 mg/ml) catalyzed by mTG (10 ng/well) was determined following the experiment described in B-II-1. Among all the peptides tested only few peptides were recognized by mTG as Gln (Q) donor to incorporate biot-cad as shown in the FIG. 1. The enzymatic activity was different between the peptide substrates. […] When Q is replaced by N (peptide HH12N11) no reactivity of the mTG was observed confirming the specificity of the enzyme to Gln donor. Moreover, if the reactivity of the 4 peptides (HH12Q11, DH6Q7, HG14Q11 and WG10Q7) is compared, it can be observed that the reactivity of the Gln depends on its position in the peptide sequence. In the most reactive peptides Q is located at the C-terminal. […]

Experiment [2] has as its target T2, human transglutaminase 2 (hTG2) (Homo sapiens, UniProt P21980).
T2 construct: purchased Covalab, France opr 0027
T2 sequence (P21980 1-687): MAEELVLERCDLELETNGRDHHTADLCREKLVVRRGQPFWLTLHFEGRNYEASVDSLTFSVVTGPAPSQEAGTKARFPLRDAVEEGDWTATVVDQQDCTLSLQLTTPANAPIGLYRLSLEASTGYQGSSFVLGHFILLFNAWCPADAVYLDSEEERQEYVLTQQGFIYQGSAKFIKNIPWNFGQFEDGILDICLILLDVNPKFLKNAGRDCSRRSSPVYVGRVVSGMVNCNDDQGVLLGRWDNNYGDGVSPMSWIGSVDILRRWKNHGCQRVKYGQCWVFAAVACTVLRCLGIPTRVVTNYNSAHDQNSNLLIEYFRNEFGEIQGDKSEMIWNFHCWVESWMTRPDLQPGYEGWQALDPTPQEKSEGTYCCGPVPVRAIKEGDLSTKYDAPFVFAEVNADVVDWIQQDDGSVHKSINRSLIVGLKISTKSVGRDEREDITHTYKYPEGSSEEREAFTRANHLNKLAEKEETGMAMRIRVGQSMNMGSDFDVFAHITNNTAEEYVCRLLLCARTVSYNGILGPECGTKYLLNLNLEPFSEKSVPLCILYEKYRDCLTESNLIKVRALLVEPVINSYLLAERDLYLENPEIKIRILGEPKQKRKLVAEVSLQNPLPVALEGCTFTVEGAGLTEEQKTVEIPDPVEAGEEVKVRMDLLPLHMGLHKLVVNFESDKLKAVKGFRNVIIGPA
Nature of the experiment: TG2-mediated incorporation of biotin-cadaverine into peptides coupled on Covabtest plate. The following applies: same conditions as for mTG. It is filed as biochemical. As to the method: as §1
For this experiment we used the same procedures described by V Thomas et all (2004) and also in the Covalab's commercialized kit (opr0033). Briefly the Lyophilized transglutaminase was reconstituted in 40 mM tris buffer pH 8 and 50 μl of each mTG at 200 ng/ml and at 40 ng/ml were added in the wells containing 50 μl of biotin-X-cadaverine. The enzymatic mixture was incubated for 15 min at room temperature under gentle shaking. […] Absorbances at 450 nm were measured using a microplate reader (Multiskan, Labsystems, Helsinki, Finland). […]

The record followed here is patent US11376333B2, “mTG substrates for covalent conjugation of compounds” (COVALAB, priority 2013, dated 2022).

Turning to HDLMWPDVYSQH (Peptide HH12Q11), the “reactivity as Gln donor for mTG incorporation of biot-cad” value in experiment [1] is listed as “good substrate for mTG”. Moreover, the “reactivity as substrate for TG2 incorporation of biot-cad” value in experiment [2] is given as “less reactivity with TG2 than mTG”.
